Assay results taken from patent US20260193366A1 (APOGEE THERAPEUTICS, published 2026).
Where a chain is given by its changes, count along the chain named.

B1: Construct 12 (mAb421) (antibody, IgG4, V domains shown)
VH: EVQLVESGGGLEQPGGSLRLSCAGSGFTFRDFAMTWVRQAPGKGLEWVSSISGSGGNIYYADSVKGRFTISRDNSKNTLYLQMNSLRAEDTAVYYCAKDRLSKTIRPRYYGLDVWGQGTTVTVSS
VL: DIVMTQSPLSLPVTPGEPASISCRSSQSVLYSIGYNYVDWYLQKSGQSPQLLIYLGNKRASGVPDRFSGSGSGTDFTLKISRVEAEDVGFYYCMQSLTSPYTFGQGTKLEIK
notes: VH/VL only
B2: Construct 25 (mAb433) (antibody, IgG4, V domains shown)
VH: B1 VH with G56D
VL: B1 VL with R24T, S25A, V29L, V38L, L55E
notes: VH/VL only
B3: Construct 21 (mAb429) (antibody, IgG4, V domains shown)
VH: B1 VH with D31T, F32Y, L101V, K103I, T104Y, I105V
VL: B1 VL with R24T, S25A, V29L, N57S
notes: VH/VL only
B4: Construct 16 (mAb424) (antibody, IgG4, V domains shown)
VH: B1 VH with D31T, F32Y, G56D, K103V
VL: B1 VL with R24T, S25A, V29L
notes: VH/VL only
B5: Construct 23 (mAb431) (antibody, V domains shown)
VH: B1 VH with S54G, N57S, I58T, K103V, I105V
VL: B1 VL with Y35K, N57S, K58Q, S61T
notes: VH/VL only
B6: Construct 22 (mAb430) (antibody, IgG4, V domains shown)
VH: B1 VH with G56S, N57S, I58T, K103V, I105V
VL: B1 VL
notes: VH/VL only
B7: Construct 26 (mAb434) (antibody, IgG4, V domains shown)
VH: B1 VH with S54G, N57S, I58T, K103I, T104A, I105V
VL: B1 VL with R24T, S25A, V29L
notes: VH/VL only
B8: Construct 18 (mAb426) (antibody, IgG4, V domains shown)
VH: B1 VH with G56D, I58T
VL: B1 VL with R24T, V29L, Y35K
notes: VH/VL only
B9: Construct 20 (mAb428) (antibody, IgG4, V domains shown)
VH: B1 VH with G56D, I58T, K103I, I105V
VL: B1 VL with R24T, V29L, T98Q, S99T, T102V
notes: VH/VL only
B10: Construct 19 (mAb427) (antibody, IgG4, V domains shown)
VH: B1 VH with D31T, F32Y, G56D, I58T, L101V, K103I
VL: B1 VL with R24T, V29L, S96A, T98G
notes: VH/VL only
B11: Construct 17 (mAb425) (antibody, IgG4, V domains shown)
VH: B1 VH with G56S, N57S, I58T, K103V, I105V
VL: B1 VL with R24T, S25A, V29L, N57S, S96A, L97Y, T98N
notes: VH/VL only

Molecular target: T1, hIL-4Rα on cells (human, UniProt P24394 26-825)
T1 sequence: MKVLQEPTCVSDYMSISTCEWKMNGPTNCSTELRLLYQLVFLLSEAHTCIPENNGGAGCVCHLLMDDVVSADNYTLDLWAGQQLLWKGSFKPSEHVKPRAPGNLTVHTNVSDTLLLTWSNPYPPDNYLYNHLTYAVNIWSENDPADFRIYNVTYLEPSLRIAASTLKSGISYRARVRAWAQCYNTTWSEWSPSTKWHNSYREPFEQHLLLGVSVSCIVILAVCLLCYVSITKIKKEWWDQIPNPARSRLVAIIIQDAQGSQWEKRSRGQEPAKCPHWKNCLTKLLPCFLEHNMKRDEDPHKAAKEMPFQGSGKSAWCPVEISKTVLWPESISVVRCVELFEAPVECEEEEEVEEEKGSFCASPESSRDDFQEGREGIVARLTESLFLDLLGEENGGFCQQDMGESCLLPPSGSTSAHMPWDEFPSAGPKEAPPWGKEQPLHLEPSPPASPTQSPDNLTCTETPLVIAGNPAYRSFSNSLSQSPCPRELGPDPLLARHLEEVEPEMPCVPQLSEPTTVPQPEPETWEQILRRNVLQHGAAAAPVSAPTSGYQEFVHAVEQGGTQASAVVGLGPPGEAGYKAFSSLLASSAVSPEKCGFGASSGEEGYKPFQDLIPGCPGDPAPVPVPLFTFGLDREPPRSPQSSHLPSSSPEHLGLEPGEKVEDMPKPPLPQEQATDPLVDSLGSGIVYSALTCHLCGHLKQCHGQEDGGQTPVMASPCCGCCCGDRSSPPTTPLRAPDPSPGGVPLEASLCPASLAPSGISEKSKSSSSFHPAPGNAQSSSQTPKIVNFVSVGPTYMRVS
Assay: cell-based or functional assay

Row | Binder | Relative Inhibition of IL-4 induced pSTAT6 IC50 | Relative Inhibition of IL-13 induced pSTAT6 IC50
1 | B1 | 0.457 relative to dupilumab | 0.672 relative to dupilumab
2 | B2 | 1.33 relative to dupilumab | 1.82 relative to dupilumab
3 | B3 | 0.305 relative to dupilumab | 0.447 relative to dupilumab
4 | B4 | 0.825 relative to dupilumab | 1.41 relative to dupilumab
5 | B5 | 0.483 relative to dupilumab | 0.475 relative to dupilumab
6 | B6 | 0.749 relative to dupilumab | 0.612 relative to dupilumab
7 | B7 | 0.661 relative to dupilumab | 0.627 relative to dupilumab
8 | B8 | 0.517 relative to dupilumab | 0.446 relative to dupilumab
9 | B9 | 1.28 relative to dupilumab | 1.86 relative to dupilumab
10 | B10 | 0.844 relative to dupilumab | 0.885 relative to dupilumab
11 | B11 | 0.876 relative to dupilumab | 0.863 relative to dupilumab

Molecular target: T1, hIL-4Rα on cells
Assay: cell-based or functional assay
Remark: another data set of the same source

Row | Binder | Relative Inhibition of IL-4 induced TARC IC50 | Relative Inhibition of IL-13 induced TARC IC50
12 | B1 | 0.38 relative to dupilumab | 0.521 relative to dupilumab
13 | B2 | 1.17 relative to dupilumab | 1.78 relative to dupilumab
14 | B3 | 0.342 relative to dupilumab | 0.313 relative to dupilumab
15 | B4 | 1.63 relative to dupilumab | 1.03 relative to dupilumab
16 | B5 | 0.557 relative to dupilumab | 0.579 relative to dupilumab
17 | B6 | 0.488 relative to dupilumab | 0.535 relative to dupilumab
18 | B7 | 0.763 relative to dupilumab | 1.73 relative to dupilumab
19 | B8 | 0.407 relative to dupilumab | 0.447 relative to dupilumab
20 | B9 | 3.63 relative to dupilumab | 1.83 relative to dupilumab
21 | B10 | 0.756 relative to dupilumab | 0.834 relative to dupilumab
22 | B11 | 0.491 relative to dupilumab | 0.789 relative to dupilumab

Molecular target: T2, human IL-4Rα (human, UniProt P24394 26-232)
T2 construct: also called Hu IL-4Rα; hIL-4Rα
T2 sequence: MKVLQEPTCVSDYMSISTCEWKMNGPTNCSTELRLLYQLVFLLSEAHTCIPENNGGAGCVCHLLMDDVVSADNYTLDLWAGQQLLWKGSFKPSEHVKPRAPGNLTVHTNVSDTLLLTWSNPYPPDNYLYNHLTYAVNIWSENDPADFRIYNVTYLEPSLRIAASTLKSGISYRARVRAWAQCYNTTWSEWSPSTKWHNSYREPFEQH
Assay: SPR, Carterra LSA;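 note: antibodies captured on an anti-human Fc sensor chip, antigen injected at several concentrations, association and dissociation rates fitted with a 1:1 Langmuir model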
Procedure: (§1) Binding affinity (KD) of antibodies to human and cynomolgus monkey IL-4Rα was determined through surface plasmon resonance (SPR) using a Carterra LSA. Briefly, an HC30M sensor chip that was previously functionalized with a polyclonal mixture of goat anti-human Fc antibody and used to capture purified antibodies at a level between 100-1000 RLU. […] Regeneration of the chip between different concentrations of antigen was performed with 200 mM phosphoric acid and antibody was captured again as previously described. Association and dissociation rate constants were subsequently determined through fitting to a 1:1 Langmuir binding model using the Kinetics Software from Carterra from which a KD value was derived.

Row | Binder | KD Relative to Dupilumab | Kd [nM]
23 | B1 | 1.91 | 0.0215
24 | B2 | 0.94 | 0.0107
25 | B3 | 0.76 | 0.00857
26 | B4 | 1.4 | 0.0158
27 | B5 | 0.67 | 0.00762
28 | B6 | 0.77 | 0.00866
29 | B7 | 0.78 | 0.00883
30 | B8 | 2.65 | 0.03
31 | B9 | 1.41 | 0.0159
32 | B10 | 3.19 | 0.036
33 | B11 | 1.49 | 0.0169

Molecular target: T3, cynomolgus monkey IL-4Rα (cynomolgus monkey, UniProt P24394 26-231 (human entry), limits assumed)
T3 construct: also called Cyno IL-4Rα; cyIL-4Rα
T3 chain: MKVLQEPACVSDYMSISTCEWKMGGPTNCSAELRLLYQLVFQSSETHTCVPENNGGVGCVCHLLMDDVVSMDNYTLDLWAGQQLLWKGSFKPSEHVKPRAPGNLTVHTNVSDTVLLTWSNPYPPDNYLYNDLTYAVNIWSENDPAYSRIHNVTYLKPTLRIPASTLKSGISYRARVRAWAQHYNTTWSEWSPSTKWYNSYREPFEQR
Assay: SPR, Carterra LSA;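 note: antibodies captured on an anti-human Fc sensor chip, antigen injected at several concentrations, association and dissociation rates fitted with a 1:1 Langmuir model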
Procedure: as §1

Row | Binder | KD Relative to Dupilumab | Kd [nM]
34 | B1 | 0.02 | 15.1
35 | B2 | 1.12 | 703
36 | B3 | 0.02 | 14.4
37 | B4 | 0.14 | 89.3
38 | B5 | 0.1 | 63.3
39 | B6 | 0.05 | 28.7
40 | B7 | 0.26 | 166
41 | B8 | 0.09 | 58
42 | B9 | 0.13 | 80.8
43 | B10 | 0.08 | 50.2
44 | B11 | 0.09 | 58.3

Molecular target: T1, hIL-4Rα on cells
Assay: cell-based or functional assay
Remark: another data set of the same source

Row | Binder | Relative Inhibition of IL-4 induced TF-1 Proliferation IC50 | Relative Inhibition of IL-13 induced TF-1 Proliferation IC50
45 | B1 | 0.526 relative to dupilumab | 0.87 relative to dupilumab
46 | B2 | 2.04 relative to dupilumab | 1.31 relative to dupilumab
47 | B3 | 0.509 relative to dupilumab | 0.498 relative to dupilumab
48 | B4 | 1.04 relative to dupilumab | 1.44 relative to dupilumab
49 | B5 | 0.823 relative to dupilumab | 0.732 relative to dupilumab
50 | B6 | 0.746 relative to dupilumab | 0.495 relative to dupilumab
51 | B7 | 0.7 relative to dupilumab | 0.83 relative to dupilumab
52 | B8 | 0.626 relative to dupilumab | 0.606 relative to dupilumab
53 | B9 | 1.12 relative to dupilumab | 1.38 relative to dupilumab
54 | B10 | 0.835 relative to dupilumab | 0.55 relative to dupilumab
55 | B11 | 0.729 relative to dupilumab | 0.844 relative to dupilumab

Molecular target: T1, hIL-4Rα on cells
Assay: FACS on HEK293 cells, competitor biotin-hIL-13;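 note: stably transduced cells co-expressing both receptor chains, stained cold, with cell-bound signal read as mean fluorescence intensity by flow cytometry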

Row | Binder | Relative Blockade of IL-13 Binding IC50
56 | B1 | 0.921 relative to dupilumab
57 | B2 | 1.09 relative to dupilumab
58 | B3 | 0.706 relative to dupilumab
59 | B4 | 0.904 relative to dupilumab
60 | B5 | 0.793 relative to dupilumab
61 | B6 | 0.785 relative to dupilumab
62 | B7 | 0.486 relative to dupilumab
63 | B8 | 0.813 relative to dupilumab
64 | B9 | 1.14 relative to dupilumab
65 | B10 | 1.02 relative to dupilumab
66 | B11 | 1.17 relative to dupilumab

Molecular target: T1, hIL-4Rα on cells
Assay: FACS on HEK293 cells, competitor biotin-hIL-4;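 note: HEK293 cells stably co-expressing hIL-13Rα and hIL-4Rα, stained for 1 h at 4 °C, read-out as mean fluorescence intensity by flow cytometry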

Row | Binder | Relative Blockade of IL-4 Binding IC50
67 | B1 | 1.07 relative to dupilumab
68 | B2 | 1.36 relative to dupilumab
69 | B3 | 0.749 relative to dupilumab
70 | B4 | 0.895 relative to dupilumab
71 | B5 | 1.07 relative to dupilumab
72 | B6 | 0.829 relative to dupilumab
73 | B7 | 0.763 relative to dupilumab
74 | B8 | 0.85 relative to dupilumab
75 | B9 | 1.44 relative to dupilumab
76 | B10 | 0.867 relative to dupilumab
77 | B11 | 1.11 relative to dupilumab
